# Data as given in patent US20120213794A1 (published 2012).
# Where a chain is given by its changes, count along the chain named.
# B1: AX211 IgG2 (antibody, V domains shown)
# VH: QVQLLESGGGLVQPGGSLRLSCKASGYTFSRQGFTWVRQAPGKGLEWIGWIDPGNGGTRYNEKFKGKATISRDNSKNTLYLQMNSLRAEDTAVYYCARYRVGYSLDYWGQGTLVTVSS
# VL: EIVLTQSPATLSLSPGERATITCRASQYVGSYLNWYQQKPGQAPRLLIYDASNRATGIPARFSGSGSGTDFTLTISSLEPEDFAVYYCQVWDSSPPVVFGGGTKVEIK
# B2: AX213 IgG2 (antibody, V domains shown)
# VH: B1 VH with Q1E, Q32Y, F34I, T35N, W50R, Y99A, R100N, V101D, L105F
# VL: EIVLTQSPATLSLSPGERATITCRASQYVGSYLNWYQQKPGQAPRLLIYDASNRATGIPARFSGSGSGTDFTLTISSLEPEDFAVYYCQVWDSSPPVVFGGGTKVEIKR
# B3: AX212 IgG2 (antibody, V domains shown)
# VH: B1 VH with R31S, Q32Y, G33S, T35S, W50Y, N55S, R59K, E62Q, K65Q, Y99Q
# VL: B1 VL
# B4: AX210 IgG2 (antibody, V domains shown)
# VH: B1 VH with R31S, Q32Y, G33S, F34I, T35Y, E62Q, K65Q, G66S, Y99A
# VL: B1 VL
# B5: AX114 IgG2 (antibody, V domains shown)
# VH: EVQLLESGGGLVQPGGSLRLSCKASGYTFSSYGMYWVRQAPGKGLEWIGWIDPGSGGTKYNEKFKGKATISRDNSKNTLYLQMNSLRAEDTAVYYCARERYGYYFDYWGQGTLVTVSS
# VL: B1 VL with S31T, V98A
# Molecular target: human PCSK9 (proprotein convertase subtilisin-kexin type 9), wild type (UniProt Q8NBP7 31-692)
# Sequence (Q8NBP7 31-692): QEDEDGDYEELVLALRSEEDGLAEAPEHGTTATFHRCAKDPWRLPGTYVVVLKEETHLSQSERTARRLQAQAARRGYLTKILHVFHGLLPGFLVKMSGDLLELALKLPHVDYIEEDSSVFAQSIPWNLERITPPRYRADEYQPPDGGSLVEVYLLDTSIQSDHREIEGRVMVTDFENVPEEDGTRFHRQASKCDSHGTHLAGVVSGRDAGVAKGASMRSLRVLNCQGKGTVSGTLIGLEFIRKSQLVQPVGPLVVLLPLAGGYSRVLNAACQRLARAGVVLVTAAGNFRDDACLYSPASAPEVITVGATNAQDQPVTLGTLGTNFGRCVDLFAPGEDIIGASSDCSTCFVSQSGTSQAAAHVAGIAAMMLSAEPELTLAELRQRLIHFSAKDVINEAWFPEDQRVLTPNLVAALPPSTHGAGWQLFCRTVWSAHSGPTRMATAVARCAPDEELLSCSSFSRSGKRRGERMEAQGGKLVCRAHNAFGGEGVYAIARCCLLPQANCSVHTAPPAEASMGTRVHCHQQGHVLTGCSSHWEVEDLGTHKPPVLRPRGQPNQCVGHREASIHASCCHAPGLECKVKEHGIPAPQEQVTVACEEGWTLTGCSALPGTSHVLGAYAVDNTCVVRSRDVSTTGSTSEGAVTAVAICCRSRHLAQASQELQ
# Assay: TR-FRET PCSK9-LDLR interaction inhibition
row,IC50 [nM],Binder
1,4.8,B1
2,4.9,B2
3,3.9,B3
4,4.9,B4
5,5.9,B5
